Key:
AncSZ = test: phosphorylation enrichment, bacterial display (enrichment ratio); higher = better substrate or ligand; peptides without Tyr show the background
EPHB1 = EPHB1 (UniProt P54762); test: as above
EPHB2 = EPHB2 (UniProt P29323); test: as above
FGFR1 = FGFR1 (UniProt P11362); test: as above
FGFR3 = FGFR3 (UniProt P22607); test: as above
Fer (mouse) = test: as above
Fes = Fes (UniProt P07332); test: as above
Fyn = Fyn (UniProt P06241); test: as above
Hck = Hck (UniProt P08631); test: as above
Hck, sequence (P08631 whole entry, looked up): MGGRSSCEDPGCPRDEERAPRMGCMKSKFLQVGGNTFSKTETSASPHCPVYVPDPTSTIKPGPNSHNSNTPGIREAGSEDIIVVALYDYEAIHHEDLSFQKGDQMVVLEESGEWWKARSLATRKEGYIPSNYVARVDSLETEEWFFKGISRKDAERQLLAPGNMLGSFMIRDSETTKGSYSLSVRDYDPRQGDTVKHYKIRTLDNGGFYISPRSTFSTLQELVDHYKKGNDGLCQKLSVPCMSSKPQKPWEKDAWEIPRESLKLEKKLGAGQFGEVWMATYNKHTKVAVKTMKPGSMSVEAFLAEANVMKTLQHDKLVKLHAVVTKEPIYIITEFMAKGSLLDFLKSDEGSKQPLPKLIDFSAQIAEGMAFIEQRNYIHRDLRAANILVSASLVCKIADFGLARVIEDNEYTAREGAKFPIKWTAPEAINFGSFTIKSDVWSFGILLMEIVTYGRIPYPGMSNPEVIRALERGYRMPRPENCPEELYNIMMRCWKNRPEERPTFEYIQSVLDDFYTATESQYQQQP

Jak2 = Jak2 (UniProt O60674); test: as above
MERTK = MERTK (UniProt Q12866); test: as above
MERTK, sequence (Q12866 whole entry, looked up): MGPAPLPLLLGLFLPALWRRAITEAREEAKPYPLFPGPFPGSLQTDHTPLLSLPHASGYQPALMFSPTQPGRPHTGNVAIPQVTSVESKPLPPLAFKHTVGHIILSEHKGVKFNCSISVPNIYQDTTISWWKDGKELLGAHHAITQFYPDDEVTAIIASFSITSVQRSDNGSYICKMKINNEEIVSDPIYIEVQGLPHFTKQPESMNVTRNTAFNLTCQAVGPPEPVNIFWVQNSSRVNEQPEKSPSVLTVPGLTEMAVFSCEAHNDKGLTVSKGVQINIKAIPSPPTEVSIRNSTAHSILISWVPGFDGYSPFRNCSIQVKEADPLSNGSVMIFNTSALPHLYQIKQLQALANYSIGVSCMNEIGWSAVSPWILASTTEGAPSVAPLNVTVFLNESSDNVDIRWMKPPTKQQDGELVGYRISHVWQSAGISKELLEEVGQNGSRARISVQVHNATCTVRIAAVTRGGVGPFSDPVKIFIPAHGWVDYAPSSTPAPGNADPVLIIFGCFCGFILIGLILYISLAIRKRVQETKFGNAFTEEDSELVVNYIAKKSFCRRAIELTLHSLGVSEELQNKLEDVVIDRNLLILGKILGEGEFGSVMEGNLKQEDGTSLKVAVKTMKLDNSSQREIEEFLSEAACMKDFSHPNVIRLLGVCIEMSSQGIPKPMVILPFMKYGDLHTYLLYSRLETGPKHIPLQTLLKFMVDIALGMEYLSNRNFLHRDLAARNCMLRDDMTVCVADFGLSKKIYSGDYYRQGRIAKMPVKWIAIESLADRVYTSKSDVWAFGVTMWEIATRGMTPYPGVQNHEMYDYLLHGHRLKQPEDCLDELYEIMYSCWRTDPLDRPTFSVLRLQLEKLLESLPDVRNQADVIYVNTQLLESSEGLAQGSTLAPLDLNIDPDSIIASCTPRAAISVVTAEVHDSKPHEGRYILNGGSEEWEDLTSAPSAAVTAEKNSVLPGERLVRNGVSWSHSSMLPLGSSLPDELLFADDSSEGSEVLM

c-Abl (mouse) = test: as above
c-Src = test: as above
Grb2 SH2 = Grb2 SH2 (UniProt P62993); test: SH2 binding enrichment of the phosphorylated peptide, bacterial display (enrichment ratio); higher = better substrate or ligand; peptides without Tyr show the background
SHP2-C SH2 = test: as above
c-Src SH2 = test: as above
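For SH2 binding enrichment of the phosphorylated peptide, bacterial display in this document: peptide library displayed on the E. coli surface as eCPX fusions, selected cells deep-sequenced, score is each peptide's frequency after selection divided by its frequency in the input.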
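For phosphorylation enrichment, bacterial display in this document: 11-residue human phosphosite peptides and single-mutation variants displayed on the E. coli surface, counted by deep sequencing, each peptide's frequency after selection divided by its frequency in the unselected input library; frequency after pTyr selection over input frequency; kinase dosed for 20-30% of maximal phosphorylation in three min.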

FGFR1, sequence (P11362 whole entry, looked up): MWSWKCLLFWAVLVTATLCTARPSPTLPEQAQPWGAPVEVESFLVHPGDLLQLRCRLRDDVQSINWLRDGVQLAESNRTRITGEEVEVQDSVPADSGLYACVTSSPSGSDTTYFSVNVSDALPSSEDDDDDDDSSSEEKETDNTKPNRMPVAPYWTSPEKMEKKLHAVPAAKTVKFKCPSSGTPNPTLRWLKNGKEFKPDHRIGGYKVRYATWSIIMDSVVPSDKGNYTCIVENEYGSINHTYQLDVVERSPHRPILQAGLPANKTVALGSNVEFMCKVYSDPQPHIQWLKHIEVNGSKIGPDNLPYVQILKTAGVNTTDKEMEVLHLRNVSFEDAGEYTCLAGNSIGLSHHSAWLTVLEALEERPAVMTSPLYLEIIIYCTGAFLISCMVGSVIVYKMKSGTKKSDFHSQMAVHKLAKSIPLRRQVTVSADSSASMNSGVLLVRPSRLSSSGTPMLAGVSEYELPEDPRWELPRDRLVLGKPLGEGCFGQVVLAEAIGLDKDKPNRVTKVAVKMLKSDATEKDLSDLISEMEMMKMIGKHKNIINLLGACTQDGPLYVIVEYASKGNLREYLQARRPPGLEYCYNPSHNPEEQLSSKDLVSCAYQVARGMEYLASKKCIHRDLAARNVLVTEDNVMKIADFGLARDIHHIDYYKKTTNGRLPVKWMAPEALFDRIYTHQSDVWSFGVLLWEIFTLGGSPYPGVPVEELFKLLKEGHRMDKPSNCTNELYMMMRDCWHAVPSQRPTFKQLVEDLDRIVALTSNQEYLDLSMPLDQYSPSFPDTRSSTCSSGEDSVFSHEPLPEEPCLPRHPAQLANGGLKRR
Fyn, sequence (P06241 whole entry, looked up): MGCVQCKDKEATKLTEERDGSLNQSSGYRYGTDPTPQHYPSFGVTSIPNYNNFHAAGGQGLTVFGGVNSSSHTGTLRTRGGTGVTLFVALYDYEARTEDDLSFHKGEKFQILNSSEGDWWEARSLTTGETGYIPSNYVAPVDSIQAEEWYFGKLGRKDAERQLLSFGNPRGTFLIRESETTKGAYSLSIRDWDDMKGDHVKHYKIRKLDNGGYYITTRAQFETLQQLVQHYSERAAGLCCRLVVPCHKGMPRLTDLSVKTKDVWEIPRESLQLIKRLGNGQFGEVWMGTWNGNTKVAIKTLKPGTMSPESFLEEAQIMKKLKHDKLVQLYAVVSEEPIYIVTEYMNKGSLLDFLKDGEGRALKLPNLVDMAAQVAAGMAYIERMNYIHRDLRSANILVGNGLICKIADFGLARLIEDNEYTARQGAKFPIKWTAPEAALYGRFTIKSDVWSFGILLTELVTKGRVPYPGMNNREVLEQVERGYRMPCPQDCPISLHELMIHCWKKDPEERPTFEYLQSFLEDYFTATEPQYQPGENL
EPHB2, sequence (P29323 whole entry, looked up): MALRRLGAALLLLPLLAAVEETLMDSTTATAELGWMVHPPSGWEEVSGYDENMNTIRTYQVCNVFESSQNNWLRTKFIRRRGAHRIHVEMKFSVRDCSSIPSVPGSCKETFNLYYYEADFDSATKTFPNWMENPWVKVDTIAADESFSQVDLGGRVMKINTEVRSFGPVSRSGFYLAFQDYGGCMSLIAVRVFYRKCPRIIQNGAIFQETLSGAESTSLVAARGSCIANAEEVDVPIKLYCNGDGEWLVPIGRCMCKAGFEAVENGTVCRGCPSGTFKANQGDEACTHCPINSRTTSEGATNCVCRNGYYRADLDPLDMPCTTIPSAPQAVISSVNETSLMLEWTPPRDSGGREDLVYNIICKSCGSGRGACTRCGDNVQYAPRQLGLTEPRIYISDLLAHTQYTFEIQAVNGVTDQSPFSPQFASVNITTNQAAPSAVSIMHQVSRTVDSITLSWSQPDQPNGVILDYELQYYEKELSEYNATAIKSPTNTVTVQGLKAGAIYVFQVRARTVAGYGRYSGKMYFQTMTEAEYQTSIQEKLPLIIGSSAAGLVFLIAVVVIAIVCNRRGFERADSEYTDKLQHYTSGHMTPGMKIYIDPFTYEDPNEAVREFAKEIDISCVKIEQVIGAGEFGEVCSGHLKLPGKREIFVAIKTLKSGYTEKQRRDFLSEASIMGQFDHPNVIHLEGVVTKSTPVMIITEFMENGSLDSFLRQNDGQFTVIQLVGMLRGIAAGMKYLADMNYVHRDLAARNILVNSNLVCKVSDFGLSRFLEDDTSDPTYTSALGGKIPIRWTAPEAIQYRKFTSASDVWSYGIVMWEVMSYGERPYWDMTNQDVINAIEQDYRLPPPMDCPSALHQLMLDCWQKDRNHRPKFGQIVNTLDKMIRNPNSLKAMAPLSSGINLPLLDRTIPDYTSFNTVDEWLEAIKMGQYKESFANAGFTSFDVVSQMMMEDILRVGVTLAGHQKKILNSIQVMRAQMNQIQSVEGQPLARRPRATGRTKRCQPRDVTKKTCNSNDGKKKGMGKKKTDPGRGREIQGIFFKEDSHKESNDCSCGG
EPHB1, sequence (P54762 whole entry, looked up): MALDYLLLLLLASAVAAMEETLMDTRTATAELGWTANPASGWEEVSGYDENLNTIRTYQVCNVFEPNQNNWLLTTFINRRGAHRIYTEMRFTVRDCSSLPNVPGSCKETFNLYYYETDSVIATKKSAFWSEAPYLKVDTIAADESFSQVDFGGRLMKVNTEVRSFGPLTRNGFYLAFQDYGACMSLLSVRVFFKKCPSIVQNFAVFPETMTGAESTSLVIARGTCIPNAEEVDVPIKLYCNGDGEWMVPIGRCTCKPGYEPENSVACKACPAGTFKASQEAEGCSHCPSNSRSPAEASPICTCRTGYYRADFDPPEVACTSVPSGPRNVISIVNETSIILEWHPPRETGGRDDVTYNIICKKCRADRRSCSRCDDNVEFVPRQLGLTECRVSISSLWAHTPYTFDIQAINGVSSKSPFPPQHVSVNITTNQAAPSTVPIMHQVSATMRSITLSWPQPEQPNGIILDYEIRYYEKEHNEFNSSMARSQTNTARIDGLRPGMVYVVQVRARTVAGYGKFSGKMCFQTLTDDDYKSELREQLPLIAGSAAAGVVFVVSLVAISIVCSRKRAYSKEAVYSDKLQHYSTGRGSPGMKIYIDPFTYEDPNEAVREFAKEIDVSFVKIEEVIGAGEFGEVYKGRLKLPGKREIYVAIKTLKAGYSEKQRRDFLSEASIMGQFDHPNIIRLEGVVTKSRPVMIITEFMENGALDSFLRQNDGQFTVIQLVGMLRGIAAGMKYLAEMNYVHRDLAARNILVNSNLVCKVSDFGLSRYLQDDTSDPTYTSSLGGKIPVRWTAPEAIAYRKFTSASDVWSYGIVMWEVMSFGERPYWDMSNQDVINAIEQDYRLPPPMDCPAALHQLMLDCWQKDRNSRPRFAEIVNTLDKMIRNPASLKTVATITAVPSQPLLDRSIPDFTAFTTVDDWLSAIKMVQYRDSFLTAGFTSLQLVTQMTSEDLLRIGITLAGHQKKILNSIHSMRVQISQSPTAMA

Sequence | phosphorylation enrichment (AncSZ) | phosphorylation enrichment (EPHB1) | phosphorylation enrichment (EPHB2) | phosphorylation enrichment (FGFR1) | phosphorylation enrichment (FGFR3) | phosphorylation enrichment (Fer (mouse)) | phosphorylation enrichment (Fes) | phosphorylation enrichment (Fyn) | phosphorylation enrichment (Hck) | phosphorylation enrichment (Jak2) | phosphorylation enrichment (MERTK) | phosphorylation enrichment (c-Abl (mouse)) | phosphorylation enrichment (c-Src) | SH2 binding enrichment (Grb2 SH2) | SH2 binding enrichment (SHP2-C SH2) | SH2 binding enrichment (c-Src SH2)
KGIQLYDTPYE [SHB_Y297] | 1.5 | 11.3 | 15.6 | 0.564 | 0.695 | 3.26 | 1.04 | 0.891 | 1.84 | 1.13 | 5.25 | 1.13 | 1.24 | 1.15 | 1.1 | 4.71
KGRAGYTTVAV [RET_Y752] | 0.46 | 0.286 | 0.265 | 0.309 | 0.412 | 0.325 | 0.519 | 0.319 | 0.337 | 0.437 | 0.415 | 0.454 | 0.347 | 1.47 | 1.64 | 1.47
KGYRGYSYDDI [TMEM230_Y110] | 0.756 | 0.407 | 0.424 | 0.485 | 0.509 | 0.393 | 0.774 | 0.425 | 0.395 | 0.607 | 0.417 | 0.547 | 0.434 | 0.963 | 0.652 | 3.92
KHCEDYVCSFN [DSC1_Y846_YF] | 1.15 | 0.564 | 0.522 | 0.572 | 0.681 | 0.525 | 1.08 | 0.473 | 0.446 | 1.13 | 0.424 | 0.719 | 0.829 | 1.06 | 0.87 | 0.809
KIVQDYLEKFY [MMP8_Y36_T32I] | 0.885 | 0.557 | 0.735 | 0.521 | 0.595 | 0.428 | 0.975 | 0.452 | 0.47 | 0.719 | 0.483 | 0.579 | 0.449 | 1.02 | 0.812 | 0.504
KKKKQYKGKFL [CASK_Y708_D710G_YF] | 0.617 | 0.447 | 0.549 | 0.485 | 0.579 | 0.439 | 0.526 | 0.532 | 0.523 | 0.535 | 0.533 | 0.547 | 0.638 | 0.685 | 0.916 | 0.515
KKYPDYIQSAM [SGMS2_Y59_I62S] | 0.839 | 0.543 | 0.396 | 0.484 | 0.487 | 0.373 | 0.772 | 0.443 | 0.413 | 0.716 | 0.392 | 0.595 | 0.428 | 0.883 | 0.746 | 0.394
KLMTEYKKRKQ [ARFGEF3_Y2029] | 0.478 | 0.336 | 0.34 | 0.331 | 0.543 | 0.411 | 0.69 | 0.418 | 0.459 | 0.653 | 0.52 | 0.629 | 0.442 | 1.27 | 0.878 | 1.08
